Experimental data from US20210284751A1 (MELLITUS, published 2021).

Key:
CD59 (human CD59, hCD59) = target: T1, CD59 (human CD59, hCD59) (human, UniProt P13987 26-102); assay: hybridoma antibody characterisation, method not described
T1 construct: also called non-glycated CD59
T1 sequence: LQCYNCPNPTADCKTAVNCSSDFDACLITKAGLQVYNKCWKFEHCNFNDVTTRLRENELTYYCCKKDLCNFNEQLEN

[1] = target: T2, K41 Amadori-modified glycated CD59 (GCD59) (human, UniProt P13987 26-102, Amadori-modified (glycated) lysine at K41, numbered on SEQ ID NO: 1); assay: sandwich ELISA on urine dilutions (6, 3, 1.5, 0.75, 0.37, 0.18 %): H9 capture, D2 detection, HRP secondary antibody, OD 450 nm converted to SPU with the calibration curve
T2 construct: also called Amadori-modified GCD59; Amadori-modified hGCD59
T2 sequence: T1 sequence
Description: GCD59 detection in urine samples was carried out using detection antibody D2, described above, specific for Amadori-modified GCD59. Assay plates were first coated with CD59 capture antibody. H9. Urine samples were obtained from two subjects, one known to have a high level of HbA1C (HbA1C-H) and one known to have a low level of HbA1C (HbAC1-L). High levels of HbA1C are a known indicator of elevated blood glucose. Samples were prepared by first adding beta-mercaptoethanol (BME) to a final concentration of 5%. Samples were then boiled at 100° C. for 5 min and centrifuged to pellet any debris. Supernatants were then isolated for the assay. A surrogate compound standard, as shown in FIG. 27 of U.S. Pat. No. 9,417,248, was used to prepare a dilution series for generating a calibration curve. The Amadori-modified GCD59 surrogate included synthetic compounds including capture and detection peptides linked by a flexible linker.
Standard samples, urine samples, as well as control samples [serum dilution buffer (50 mM Acetic acid/Na acetate; 2% NonIdet P40 Substitute; 0.15% Tween 20; 0.1% Triton X-100; 50 ppm ProClin 300) only] were added to the assay plate in triplicate. Urine samples were further diluted using serum dilution buffer to create a series of conditions ranging from 6% v/v urine sample to 0.2% urine sample in serum dilution buffer. […]

B1: antibody H9 (clone H9), CD59 capture antibody (antibody, mouse IgG1, kappa, V domains shown)
VH: EVQLVESGGDLVKPGGSLKLSCAASGFTFSSYGMSWVRQSPDKRMEWVATISSGGSYTYYPDSVKGRFTVSRDNAKNTLYLQMSSLRSEDTAIFYCVRDRYDGMDYWGQGTSVTVSS
VL: DVVMTQSPLSLPVSLGDQASISCRSSQSLVHSNGNTYLQWYLQKPGQSPNLLIYKVSNRFSGVPDRFSGSGSGTDFTLKISRVEAEDLGVYFCSQSTHVPFTFGSGTKLEIKR
notes: Mouse hybridoma monoclonal antibody
CD59 (human CD59, hCD59)
  binding result: binds
[1]
  binding result: binds
